# Results published in paper PMC7940618, “Specific inhibition of the Survivin–CRM1 interaction by peptide-modified molecular tweezers” (Nature Communications, 2021).
# Tests used:
# TW-ELTLGEFL-FAM (human) = test: fluorescence polarisation; fluorescence anisotropy; 200 nM FAM-labeled tweezer titrated with Survivin120 (to 180 µM) or K90/103T (to 350 µM); PBS pH 7.4, 25 °C; single-site model
# TW-ELTL-FAM (human) = test: as above
# [1] = molecular target: TW-ELTL (asymmetrical molecular tweezer linked to the short peptide ELTL) (human); test: ITC; tweezer conjugate (100 µM) in the cell, Survivin120 (1.2 mM WT or 2.5 mM K90/103T) in the syringe; PBS pH 7.4, 25 °C; one set of sites model
# [2] = molecular target: TW-ELTLGEFL (asymmetrical molecular tweezer linked to the elongated peptide ELTLGEFL) (human); test: as above
# Survivin142-HA (human) = Survivin142-HA (human) (UniProt O15392); test: pull-down; competition in the pull-down of a5: 293T lysate with Survivin142-HA preincubated 1 h with 10 nM to 200 µM tweezer conjugate before GST-CRM1, RanQ69L and dGTP
# Sequence of Survivin142-HA (human) (O15392 whole entry): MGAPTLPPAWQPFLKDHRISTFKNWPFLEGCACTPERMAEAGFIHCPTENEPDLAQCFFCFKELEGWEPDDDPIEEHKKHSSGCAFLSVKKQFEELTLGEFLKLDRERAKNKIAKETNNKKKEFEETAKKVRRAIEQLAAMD
# [3] = molecular target: Atto488-labeled Survivin120 (human) (UniProt O15392); test: fluorescence polarisation; fluorescence anisotropy competition; Atto488-Survivin120 preincubated with CRM1_1-1062VLV430AAA at 1:5, titrated with tweezers to approx. 180 µM; PBS pH 7.4, 25 °C; n = 1
# Sequence of Atto488-labeled Survivin120 (human) (O15392 1-120): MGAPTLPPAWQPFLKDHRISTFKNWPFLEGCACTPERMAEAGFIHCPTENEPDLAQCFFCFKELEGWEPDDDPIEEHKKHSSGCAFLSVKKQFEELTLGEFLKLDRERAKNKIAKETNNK
Substance,Kd (TW-ELTLGEFL-FAM (human)),Kd (TW-ELTL-FAM (human)),Kd [1],stoichiometry N (ligand/protein) [1],Kd [2],stoichiometry N (ligand/protein) [2],concentration required to disrupt the Survivin–CRM1 complex (Survivin142-HA (human)),IC50 [3]
Survivin120 K90/103T (from UniProt O15392 1-120) (domain or fragment),92 µM,240 µM,50 µM,1,36 µM,1,–,–
TW-ELTL (asymmetrical molecular tweezer linked to the short peptide ELTL),–,–,–,–,–,–,10 to 50 µM,39 µM
